# Assay: yeast display, Sf9 membrane polyspecificity reagent, FACS + sequencing; frameworks hold sequencing errors
# Summary of the method: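 Sorting gates, low and high (top ~1%), were placed on anti-HA fluorescence to track expression and on streptavidin fluorescence to track reagent binding. A clone's polyreactivity label is taken from the gate it came out of. The reagent was 10% biotinylated, detergent-solubilized Sf9 membrane, applied for 1 hour at 4 °C to galactose-induced yeast display cells.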
row,Sequence,polyreactivity (PSR sort gate)
1,QVQRVESGGGLVQAGGSLRLSCAASGIIFQSYAMGWYRQAPGKERELVAAISRRGRRTYYADSVKGRFTFSRDNAKNTVDLQMTSLKPEDTAVYYCADRYRYAPYDYWGQGTQVTVSS,high polyreactivity
2,QVQRVESGGGLVQAGGSLRLSCAASGLTFNNNAMGCYRQAPGTARELVAAISRTAVRTYYADSVKGRFTISRDNAKNTVYLQMNSLKPEDTAVYYCNGVSYYGGYPVTYDYWGQGTQVTVSS,high polyreactivity
3,QVQRVESGGGLVQAGGSLRLSCAASGLTSKFYAMGWYRQAPRKERELVAAISGSGGSTYYADSVKGRFTISRDKAKNTVYLQMNSLKPEDTAVYYFAARYFGLRYYYWGQGTQVTVSS,high polyreactivity
4,QVQRVESGGGLVQAGGSLRLSCAASGRIFRYNAMGWYRQAPGKERELVAAISGTADRTYYADSVKGRFTNSRDNAKNTVYLQMNSLKPEDTAVYYCAVAYSYRYYYWGQGTQVTVSS,high polyreactivity
5,QVQRVESGGGLVQAGGSLRLSCAASGRIFSIYGMGWYRQAPGKERELVAVISGSVGITYYADSVKGRFTISRDNAKNTVYLQINSLKPEDTAVFYCNAKVRRRKYDYWGQGTQVTVSS,high polyreactivity
6,QVQRVESGGGLVQAGGSLRLSCAASGRPFDVYALGGYRQAPGKERELVATITYSGGITYYADSVKGRFTISRDNAKTTVYLQMNSLKPEDTAVYYPIGVGGDYDYWGQGTQVTVSS,low polyreactivity
7,QVQRVESGGGLVQAGGSLRLSCAASGRTFAPNAMGWYRQAPGKERELVAAITRRTGSTYYADSVKGRFTISRDNAKNTVYLQMNSLKPEDTAVYYCNGRRRTWYGFYYWGQGTQVTVSS,high polyreactivity
8,QVQRVESGGGLVQAGGSLRLSCAASGSIFRGYAMGWYRQEPEKERELVAAISRRGGSTYYADSVKGRFTISRDNAKNTVYLQMNSLKPEDTAVYYCAIDGTGAGTYDYWGQGTQVTVSS,low polyreactivity
9,QVQRVESGGGLVQAGGSLRLSCAASGSIFYWYAMGWNIQAPGEEREFVAAITWSGGSTYYADSVKGRFTISRDNAKNTVYLQMNSLQPEDTAVYSCAAQGRRYGYGDFYYWGQGSQVTVSS,high polyreactivity
10,QVQRVESGGGLVQAGGSLRLSCAASGSTFTRYGMGWYRQAPGKERELVAAISDRGVSTYYADSVKGRFTISRDNAKNTVYLQMNRMKPEDTAVYYCAAVFWVDILPGDYWGQGTQVTVSS,low polyreactivity
11,QVQRVESGGGLVQAGGSLRLSCAASGSTFYFYARGWYRQAPGKERELVAVITDGGAITYYADSVKGRFTISRDNAKNTVYLQMNSLKPEDTAVYYCAASSFGWYTRYDYWGQGTQVTVSS,high polyreactivity
12,QVQRVESGGGLVQAGGSLRLSCAASGSTLGYYTMGWYRQAPGKERELVAAIDWSGGSTYYADSVKGRFTISRDNAKNTGYLQMNSLKPEDTAVYYCNAEPWDPFYSPGRGGMDYWGQGTQVTVSS,low polyreactivity
13,QVQRVESGGGLVQAGGSLRLSSADSGLTLYRYAMGWYRQAPGKERELVAAISSGDRTNYADSVKGRFTISRDNAKNTVYLHMNSLKPEDTAVYYCAALRQARQKKYGYWGQGTQVTVSS,high polyreactivity
14,QVQRVESGGGLVQAGGSLRLSWAASGSTFSRYAMGWYRQAPGTERELVAAISASGGGTYYADSVKGRFTISRDNAKNTVYLQMNSLQPEDTAVFYCAAVRIARAVQDYDYWGQGTQVTVSS,high polyreactivity
15,QVQRVESGGGLVQAGGSLRLTSAVSGTTFYIYAMGWYRQAPGKEREFVAAIDFSGSSTYADSVKGRFTISRDNAKNTVYLQMNSLKPEDTEVYYCAAYQIFQYDGPYDYWGQGTQVTVSS,low polyreactivity
16,QVQRVESGGGLVQAGGSRRLSCAASGNIFRRYTMGWYRQAPGKERELVAAISRRGGSTHYADSVKGRFTISRDNAKNTVYLQMNSLKPEDTAVYYCNAYLVYSYSPSHYYGFGYWGQGTQVTVSS,high polyreactivity
17,QVQRVESGGGLVQAGGSRRLSCAASGSIFSAYAMGWYRQAPGKEREFVAAITRRGGNTYYADSVKGRFTISRDNAKNTVYLQMNSLKPDDTAVYYCAADAGGGPFDYSGQGTQVTVSS,low polyreactivity
18,QVQRVESGGGLVQAGGSRRLTCAASGRTSVPYARGWYRQAPGKERELVAAITSGGSTYYADSVKGRFTISRDNAKNTVYLQMNSLKPEDTAVYYCAASLPHSAPYTASYGSWGQGTQVTVSS,low polyreactivity
19,QVQRVESGGGLVQAGGTLRLSCAASGNTFDYYAMGWYRQAPGKERELVAAIRYRGGTTYYADSVKGRFTISRDNAKNTVYLQMNSLKPEDTAVYYCAARYVPYSRRYNYWGQGTQVTVSS,high polyreactivity
20,QVQRVESGGGLVQARGSLRLSCAASGRIFYRYAMGWNIQAPGKERELVAAISGSVGSTYADSVKGRFTISRDNAKNTVYLQMNSLKPEDTAVYYCARETYRRYGAYDYWGQGTQVSVSS,low polyreactivity
21,QVQRVETGGGLFQAGGSLRLSCAASGRTFGPYAMGWYIQAPGKERELVAAIRYIDDSTFYADSVKGRFTISRDNAKNTVYVQMNSLKPEDTAVYYCAAQRRVVGRHGLSLIRYDYWGQGTQVTVSS,low polyreactivity
22,QVQVESGGGLVQAGGSLRLSCGASGSIIDQYVMGWYRQAPGKERELVAAISRGGRTYYADSVKGRFTISRDNAKNTVYLQMNSLNPEDTAVYYCATGYGPYLGRPHLTLYYYWGQGTQVTVSS,low polyreactivity
23,QVQVVDSGGGLVQAGGSLLLSCAASGSILGFNAMGWYRQSPGKEMELVASISSSGDSTYYADSEKGRFTISRDNAKNTVYLQMNSLKPEDTAVYYCATEGRTDYNREMEYWGQGSQVTVSS,low polyreactivity
24,QVQVVESGGGLVHAGGSLRLSCAASGITCVWNDMGWYRQPPGKEREFVAGITYRSGRTYYADSVKGRFTISRDNAKNTVYLQMNSLKPEDTAGYYCATTPRYTTYNYWGQGTQVTVSS,high polyreactivity
25,QVQVVESGGGLVKAAGSLGLSCSASGLNFRFYTMGWYRQAPGKERELVAAISTSGGSTYYADSVKGRFTISRDNAKNNVFLQMNSLKPEDTAVYYCIAVYAFNGYDYWGQGTQVTVSS,low polyreactivity
26,QVQVVESGGGLVQAGGRLRLSCAASGSTFKYYVMGWYRQAPGKERELVAAITRSGSTNYADSVKGRFRISRDNAKNTVYLQMNSLKPEDTAVYYCATDSLRLYGGKRDQYYWGQGTQVTVSS,low polyreactivity
27,QVQVVESGGGLVQAGGSIRLSCAASGSILSRYAMGWYRQAPGKERELFAAITSSGGTTYYADSVKGRFTISRDTAKNTVYLQMNSLKPEDTAVYYCADHGSRYGYGDFYYWGQGTQVTVSS,high polyreactivity
28,QVQVVESGGGLVQAGGSLRISCAASGSIFPGYDMGWYRQAPGKERELVAAIRTSGGSTNYADSVKGRFTISRDNAKNTVYLQMNSLKPEDTAVYYCAARTNSPRGTKRYYWGQGTQVTVSS,high polyreactivity
29,QVQVVESGGGLVQAGGSLRLSCAASGIIFKQNVMGRYIQAPGKERELVAAISRGGSTNYADSLKGRFTISRDNAKNTVYLQMNSLKPEDTEVYYCAARFVLRREYGYWGQGTQVTVSS,high polyreactivity
30,QVQVVESGGGLVQAGGSLRLSCAASGRIFYQNAMGWYRPAPGKERELVADISSGGSTYYADSVKGRFTISRDNAKNTVYLQMNSLKPEDTAVYYCNTPSGPGTVGSYRRIWYGYWGQGTQVTVSS,low polyreactivity
